Results from PMC3334367 (Molecular Cell, 2012).
Blank lines part the entries; values can stand above or below the binder they belong to.

Target: T1, GST-RNC (GST fused N-terminal RNC domain of Kog1, amino acids 1-637) (yeast, UniProt P38873 1-637)
T1 sequence (looked up): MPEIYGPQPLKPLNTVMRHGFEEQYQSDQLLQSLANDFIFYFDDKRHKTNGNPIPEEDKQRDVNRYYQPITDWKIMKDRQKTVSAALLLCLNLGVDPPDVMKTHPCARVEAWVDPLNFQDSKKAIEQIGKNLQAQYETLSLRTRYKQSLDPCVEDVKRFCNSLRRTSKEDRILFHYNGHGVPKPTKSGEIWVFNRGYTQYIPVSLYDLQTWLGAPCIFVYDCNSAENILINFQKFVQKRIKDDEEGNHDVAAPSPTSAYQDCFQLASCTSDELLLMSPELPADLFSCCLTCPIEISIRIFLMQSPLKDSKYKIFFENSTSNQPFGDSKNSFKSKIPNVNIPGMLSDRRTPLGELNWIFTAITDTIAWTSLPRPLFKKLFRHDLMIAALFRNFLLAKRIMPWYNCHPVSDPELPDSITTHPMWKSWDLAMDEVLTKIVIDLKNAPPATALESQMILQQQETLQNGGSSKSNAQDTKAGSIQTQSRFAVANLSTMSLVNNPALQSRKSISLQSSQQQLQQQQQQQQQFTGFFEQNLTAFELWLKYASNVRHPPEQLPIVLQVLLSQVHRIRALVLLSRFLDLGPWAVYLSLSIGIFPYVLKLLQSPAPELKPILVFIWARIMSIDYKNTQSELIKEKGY
Experiment: pull-down

binding result: binds
B1: His tagged recombinant Tap42 (natural protein, yeast, UniProt Q04372 1-366, looked up)
chain: MASVTEQFNDIISLYSTKLEHTSLRQDSPEYQGLLLSTIKKLLNLKTAIFDRLALFSTNETIDDVSTASIKFLAVDYYLGLLISRRQSNDSDVAQRQSMKLIYLKKSVESFINFLTLLQDYKLLDPLVGEKLGNFKDRYNPQLSELYAQPKNNKDLSGAQLKRKEKIELFQRNKEISTKLHCLELELKNNDEDHDHDELLRELYLMRLHHFSLDTINNIEQNLFECEMLSNFLKNSVHEVKSSGTQIRKESNDDDSTGFTDKLENINKPLIDKKGQVLRNFTLVDKRQQLQQKVRGYGQYGPTMSVEEFLDKEFEEGRVLQGGEEPEQAPDEENMDWQDRETYKAREWDEFKESHAKGSGNTMNRG

binding result: binds
B2: His tagged recombinant Rho1 (natural protein, yeast, UniProt P06780 1-209, looked up)
chain: MSQQVGNSIRRKLVIVGDGACGKTCLLIVFSKGQFPEVYVPTVFENYVADVEVDGRRVELALWDTAGQEDYDRLRPLSYPDSNVVLICFSIDLPDSLENVQEKWIAEVLHFCQGVPIILVGCKVDLRNDPQTIEQLRQEGQQPVTSQEGQSVADQIGATGYYECSAKTGYGVREVFEAATRASLMGKSKTNGKAKKNTTEKKKKKCVLL
